Results as given in patent US20260193348A1 (ANTENGENE BIOLOGICS, published 2026).

Columns and labels:
[1] = molecular target: T1, CD3 (Cluster of Differentiation 3 protein), human, on T cells / Jurkat cells (human, UniProt P07766 23-207; P04234 22-171; P09693 23-182); assay: FACS, Jurkat cells, antibody at 50 µg/ml
T1 construct: whole, on cells; part of the TCR-CD3 complex; also called human CD3
Protocol: The binding affinities of the generated humanized Fab-scFv-Fab bispecific antibodies were determined by FACS analysis. […] (a) Jurkat cells were washed by Staining Buffer (PBS+1% BSA) in round bottom 96-well plate. [0833] (b) Antibody dilutions and cells were added to each well, incubated at 4 degrees for 1 hour. [0834] (c) Cells were spined down at 300 g for 3 minutes, and the supernatants were discarded. [0835] (d) Cells were washed with Staining Buffer. […] (e) Step (d) was repeated and the cells were incubated for 0.5 hours at 4 degrees with secondary antibody in Staining Buffer. [0837] (f) After incubation, step (d)-(e) were repeated. […] (g) Staining Buffer was added and fluorescence signals were recorded by flow cytometry.

[2] = molecular target: T2, GPRC5D (G-protein coupled receptor family C group 5 member D), human, on multiple myeloma cell lines (human, UniProt Q9NZD1 1-345); assay: cell-based or functional assay
[3] = molecular target: T2, GPRC5D (G-protein coupled receptor …); assay: cell-based or functional assay; remark: listed apart in the source

T2 sequence (Q9NZD1 whole entry): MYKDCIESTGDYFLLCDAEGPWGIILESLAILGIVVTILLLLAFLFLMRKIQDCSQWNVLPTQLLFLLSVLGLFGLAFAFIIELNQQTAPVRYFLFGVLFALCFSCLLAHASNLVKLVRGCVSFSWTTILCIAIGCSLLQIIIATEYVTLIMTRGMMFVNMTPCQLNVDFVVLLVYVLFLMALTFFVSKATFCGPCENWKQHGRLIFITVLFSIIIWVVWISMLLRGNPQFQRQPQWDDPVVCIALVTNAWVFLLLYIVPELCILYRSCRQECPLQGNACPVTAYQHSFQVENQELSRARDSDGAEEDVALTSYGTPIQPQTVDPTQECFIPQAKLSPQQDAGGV
T1 sequence (P07766 23-207, chain 1 of 3): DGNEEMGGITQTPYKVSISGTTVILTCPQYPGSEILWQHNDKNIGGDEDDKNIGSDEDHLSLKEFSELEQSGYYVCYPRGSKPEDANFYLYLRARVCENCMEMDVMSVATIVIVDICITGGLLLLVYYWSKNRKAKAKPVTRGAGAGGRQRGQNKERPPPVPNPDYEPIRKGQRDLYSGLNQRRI
T1 sequence (P04234 22-171, chain 2 of 3): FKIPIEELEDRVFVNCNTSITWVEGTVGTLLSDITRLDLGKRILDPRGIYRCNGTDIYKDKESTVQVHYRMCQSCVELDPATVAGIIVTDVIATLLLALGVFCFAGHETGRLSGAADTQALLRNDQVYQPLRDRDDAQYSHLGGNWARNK
T1 sequence (P09693 23-182, chain 3 of 3): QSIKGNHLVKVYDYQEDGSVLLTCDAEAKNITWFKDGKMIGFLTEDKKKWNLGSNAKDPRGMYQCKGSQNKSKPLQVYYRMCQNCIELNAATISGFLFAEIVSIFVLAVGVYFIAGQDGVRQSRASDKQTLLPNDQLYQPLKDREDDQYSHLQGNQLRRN

MFI (50 µg/ml) [1] [MFI]	EC50 (nM), luciferase assay, L363 [2] [nM]	EC50 (nM), luciferase assay, MM.1S [2] [nM]	EC50 (nM), luciferase assay, MOLP-8 [2] [nM]	EC50 (nM), luciferase assay, RPMI8226 [2] [nM]	Top (RLU), luciferase assay, L363 [2] [RLU]	Top (RLU), luciferase assay, MM.1S [2] [RLU]	Top (RLU), luciferase assay, MOLP-8 [2] [RLU]	Top (RLU), luciferase assay, RPMI8226 [2] [RLU]	Binder	IC50 (nM), T-Cell Dependent Cytotoxicity, MM.1S [3] [nM]	IC50 (nM), T-Cell Dependent Cytotoxicity, MOLP-8 [3] [nM]	IC50 (nM), T-Cell Dependent Cytotoxicity, RPMI8226 [3] [nM]	Top (%), T-Cell Dependent Cytotoxicity, MM.1S [3] [%]	Top (%), T-Cell Dependent Cytotoxicity, MOLP-8 [3] [%]	Top (%), T-Cell Dependent Cytotoxicity, RPMI8226 [3] [%]
113	0.258	0.18	0.00654	1.05	898	2510	1190	261	Bis-40E9-L2H1 (bispecific antibody, Fab-scFv-Fab (2+1), LALA; not shown: CH1; CL; CH2-CH3 with L234A, L235A; heavy chain constant region with L234A, L235A) heavy: EVQLVQSGAEVKKPGASVKVSCKASGYTFTSYVIHWVRQAPGQGLEWMGYFNPYNDGTKYNEEFKGRVTLTSDKSTSTAYMELRSLRSDDTAVYYCARGGVRRYFDVWGQGTTVTVSS heavy (part 1 of 2): EVQLVQSGAEVKKPGASVKVSCKASGYTFTSYVIHWVRQAPGQGLEWMGYFNPYNDGTKYNEEFKGRVTLTSDKSTSTAYMELRSLRSDDTAVYYCARGGVRRYFDVWGQGTTVTVSS heavy (part 2 of 2): GGGGSGGGGSEVQLVQSGAEVKKPGSSVKVSCKASGGTFSSYVIHWVRQAPGQCLEWMGYINPYNDVIKYNEKFKGRVTITADKSTSTAYMELSSLRSEDTAVYYCARDSYYSYDGFAYWGQGTLVTVSSGGGGSGGGGSGGGGSGGGGSEIVLTQSPDFQSVTPKEKVTITCSASSSVSYMHWYQQKPDQSPKRLIYDTSKLASGVPSRFSGSGSGTDFTLTINSLEAEDAATYYCQQWSSNPPTFGCGTKVEIKGGGGSGGGGS light: DIQMTQSPSSLSASVGDRVTITCRASQDIGSNLNWLQQKPGKAIKRLIYATFGLDSGVPSRFSGSRSGTDFTLTISSLQPEDFATYYCQQYASFPYTFGGGTKVEIK	0.0437	0.0069	0.356	56.3	58.3	25.9
328	0.206	0.0592	0.000513	–	1430	1700	213	–	Bis-40E9-L2H4 (bispecific antibody, Fab-scFv-Fab (2+1), LALA; not shown: CH1; CL; CH2-CH3 with L234A, L235A; heavy chain constant region with L234A, L235A) heavy: EVQLVQSGAEVKKPGASVKVSCKASGYTFTSYVIHWVRQAPGQGLEWMGYFNPYNDGTKYNEEFKGRVTLTSDKSTSTAYMELRSLRSDDTAVYYCARGGVRRYFDVWGQGTTVTVSS heavy (part 1 of 2): EVQLVQSGAEVKKPGASVKVSCKASGYTFTSYVIHWVRQAPGQGLEWMGYFNPYNDGTKYNEEFKGRVTLTSDKSTSTAYMELRSLRSDDTAVYYCARGGVRRYFDVWGQGTTVTVSS heavy (part 2 of 2): GGGGSGGGGSEVQLVQSGAEVKKPGSSVKVSCKASGYTFSSYVIHWVRQAPGQCLEWIGYINPYNDVIKYNEKFKGRATLTSDKSTSTAYMELSSLRSEDTAVYYCARDSYYSYDGFAYWGQGTLVTVSSGGGGSGGGGSGGGGSGGGGSEIVLTQSPDFQSVTPKEKVTITCSASSSVSYMHWYQQKPDQSPKRLIYDTSKLASGVPSRFSGSGSGTDFTLTINSLEAEDAATYYCQQWSSNPPTFGCGTKVEIKGGGGSGGGGS light: DIQMTQSPSSLSASVGDRVTITCRASQDIGSNLNWLQQKPGKAIKRLIYATFGLDSGVPSRFSGSRSGTDFTLTISSLQPEDFATYYCQQYASFPYTFGGGTKVEIK	0.0125	0.00239	0.381	69	63.9	20.4
128	0.19	0.0719	0.906	0.878	584	1720	118	113	Bis-40E9-L2H3-D99E.H (bispecific antibody, Fab-scFv-Fab (2+1), LALA; not shown: CH1; CL; CH2-CH3 with L234A, L235A; heavy chain constant region with L234A, L235A) heavy: EVQLVQSGAEVKKPGASVKVSCKASGYTFTSYVIHWVRQAPGQGLEWMGYFNPYNDGTKYNEEFKGRVTLTSDKSTSTAYMELRSLRSDDTAVYYCARGGVRRYFDVWGQGTTVTVSS heavy (part 1 of 2): EVQLVQSGAEVKKPGASVKVSCKASGYTFTSYVIHWVRQAPGQGLEWMGYFNPYNDGTKYNEEFKGRVTLTSDKSTSTAYMELRSLRSDDTAVYYCARGGVRRYFDVWGQGTTVTVSS heavy (part 2 of 2): GGGGSGGGGSEVQLVQSGAEVKKPGSSVKVSCKASGYTFSSYVIHWVRQAPGQCLEWMGYINPYNDVIKYNEKFKGRVTLTSDKSTSTAYMELSSLRSEDTAVYYCARESYYSYDGFAYWGQGTLVTVSSGGGGSGGGGSGGGGSGGGGSEIVLTQSPDFQSVTPKEKVTITCSASSSVSYMHWYQQKPDQSPKRLIYDTSKLASGVPSRFSGSGSGTDFTLTINSLEAEDAATYYCQQWSSNPPTFGCGTKVEIKGGGGSGGGGS light: DIQMTQSPSSLSASVGDRVTITCRASQDIGSNLNWLQQKPGKAIKRLIYATFGLDSGVPSRFSGSRSGTDFTLTISSLQPEDFATYYCQQYASFPYTFGGGTKVEIK	0.0244	0.00776	0.406	57.2	68.7	13.4
114	0.187	0.268	0.116	1.58	277	2910	262	101	Bis-40E9-L2H3-G106A.H (bispecific antibody, Fab-scFv-Fab (2+1), LALA; not shown: CH1; CL; CH2-CH3 with L234A, L235A; heavy chain constant region with L234A, L235A) heavy: EVQLVQSGAEVKKPGASVKVSCKASGYTFTSYVIHWVRQAPGQGLEWMGYFNPYNDGTKYNEEFKGRVTLTSDKSTSTAYMELRSLRSDDTAVYYCARGGVRRYFDVWGQGTTVTVSS heavy (part 1 of 2): EVQLVQSGAEVKKPGASVKVSCKASGYTFTSYVIHWVRQAPGQGLEWMGYFNPYNDGTKYNEEFKGRVTLTSDKSTSTAYMELRSLRSDDTAVYYCARGGVRRYFDVWGQGTTVTVSS heavy (part 2 of 2): GGGGSGGGGSEVQLVQSGAEVKKPGSSVKVSCKASGYTFSSYVIHWVRQAPGQCLEWMGYINPYNDVIKYNEKFKGRVTLTSDKSTSTAYMELSSLRSEDTAVYYCARDSYYSYDAFAYWGQGTLVTVSSGGGGSGGGGSGGGGSGGGGSEIVLTQSPDFQSVTPKEKVTITCSASSSVSYMHWYQQKPDQSPKRLIYDTSKLASGVPSRFSGSGSGTDFTLTINSLEAEDAATYYCQQWSSNPPTFGCGTKVEIKGGGGSGGGGS light: DIQMTQSPSSLSASVGDRVTITCRASQDIGSNLNWLQQKPGKAIKRLIYATFGLDSGVPSRFSGSRSGTDFTLTISSLQPEDFATYYCQQYASFPYTFGGGTKVEIK	0.057	0.0068	4.04	67.4	54.3	5.69
142	1.71	0.0332	0.072	–	2760	1710	150	–	Bis-40E9-L3H1 (bispecific antibody, Fab-scFv-Fab (2+1), LALA; not shown: CH1; CL; CH2-CH3 with L234A, L235A; heavy chain constant region with L234A, L235A) heavy: EVQLVQSGAEVKKPGASVKVSCKASGYTFTSYVIHWVRQAPGQGLEWMGYFNPYNDGTKYNEEFKGRVTLTSDKSTSTAYMELRSLRSDDTAVYYCARGGVRRYFDVWGQGTTVTVSS heavy (part 1 of 2): EVQLVQSGAEVKKPGASVKVSCKASGYTFTSYVIHWVRQAPGQGLEWMGYFNPYNDGTKYNEEFKGRVTLTSDKSTSTAYMELRSLRSDDTAVYYCARGGVRRYFDVWGQGTTVTVSS heavy (part 2 of 2): GGGGSGGGGSEVQLVQSGAEVKKPGSSVKVSCKASGGTFSSYVIHWVRQAPGQCLEWMGYINPYNDVIKYNEKFKGRVTITADKSTSTAYMELSSLRSEDTAVYYCARDSYYSYDGFAYWGQGTLVTVSSGGGGSGGGGSGGGGSGGGGSEIVLTQSPDFQSVTPKEKVTITCSASSSVSYMHWYQQKPDQSPKRWIYDTSKLASGVPSRFSGSGSGTDYTLTINSLEAEDAATYYCQQWSSNPPTFGCGTKVEIKGGGGSGGGGS light: DIQMTQSPSSLSASVGDRVTITCRASQDIGSNLNWLQQKPGKAIKRLIYATFGLDSGVPSRFSGSRSGTDFTLTISSLQPEDFATYYCQQYASFPYTFGGGTKVEIK	0.0203	0.00244	0.292	74.9	68.3	13.6
